First the molecules themselves.
T1: SNTG1, Q9NSN8
T1 sequence (Q9NSN8 52-150, limits assumed, looked up): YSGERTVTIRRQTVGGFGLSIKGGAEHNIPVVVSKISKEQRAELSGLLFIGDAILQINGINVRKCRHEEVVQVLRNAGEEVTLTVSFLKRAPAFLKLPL

T2: NHERF3_1, Q5T2W1
T2 sequence (Q5T2W1 4-100, limits assumed, looked up): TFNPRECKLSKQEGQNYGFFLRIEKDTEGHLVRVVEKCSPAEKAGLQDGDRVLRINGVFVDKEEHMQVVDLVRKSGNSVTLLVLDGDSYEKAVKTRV

T3: SNTB1, Q13884
T3 sequence (Q13884 107-205, limits assumed, looked up): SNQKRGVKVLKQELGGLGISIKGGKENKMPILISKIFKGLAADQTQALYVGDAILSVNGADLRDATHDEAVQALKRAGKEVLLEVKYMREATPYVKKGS

T4: MPDZ_5, O75970
T4 sequence (O75970 695-796, limits assumed, looked up): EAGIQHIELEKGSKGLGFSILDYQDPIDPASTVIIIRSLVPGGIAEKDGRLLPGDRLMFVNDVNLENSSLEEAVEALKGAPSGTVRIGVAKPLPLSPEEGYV

T5: TJP3_3, O95049
T5 sequence (O95049 375-456, limits assumed, looked up): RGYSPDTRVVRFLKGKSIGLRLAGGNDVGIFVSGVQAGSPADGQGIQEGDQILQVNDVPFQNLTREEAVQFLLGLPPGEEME

T6: SNTG2, Q9NY99
T6 sequence (Q9NY99 68-166, limits assumed, looked up): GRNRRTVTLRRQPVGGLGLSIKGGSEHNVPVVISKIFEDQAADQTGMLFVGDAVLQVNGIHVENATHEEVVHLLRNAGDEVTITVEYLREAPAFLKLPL

T7: APBA2_1, Q99767
T7 sequence (Q99767 563-664, limits assumed, looked up): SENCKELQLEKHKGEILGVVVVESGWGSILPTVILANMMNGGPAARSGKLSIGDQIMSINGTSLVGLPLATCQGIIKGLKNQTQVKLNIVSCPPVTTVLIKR

T8: APBA3_1, O96018
T8 sequence (O96018 389-490, limits assumed, looked up): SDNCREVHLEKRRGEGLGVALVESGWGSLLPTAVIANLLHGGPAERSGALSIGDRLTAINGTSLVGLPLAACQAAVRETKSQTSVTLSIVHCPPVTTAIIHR

T9: GRIP1_5, Q9Y3R0
T9 sequence (Q9Y3R0 568-668, limits assumed, looked up): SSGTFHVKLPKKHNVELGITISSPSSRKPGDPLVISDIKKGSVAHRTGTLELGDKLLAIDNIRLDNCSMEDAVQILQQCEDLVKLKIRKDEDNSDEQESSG

T10: GRIP1_2, Q9Y3R0
T10 sequence (Q9Y3R0 145-248, limits assumed, looked up): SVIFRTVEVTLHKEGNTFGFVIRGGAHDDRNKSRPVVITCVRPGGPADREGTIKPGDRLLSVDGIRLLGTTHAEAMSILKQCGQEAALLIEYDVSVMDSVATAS

T11: SHANK1, Q9Y566
T11 sequence (Q9Y566 658-767, limits assumed, looked up): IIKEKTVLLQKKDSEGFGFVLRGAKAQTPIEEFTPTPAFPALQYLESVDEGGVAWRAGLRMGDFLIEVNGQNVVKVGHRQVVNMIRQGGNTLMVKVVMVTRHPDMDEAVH

T12: APBA1_1, Q02410
T12 sequence (Q02410 651-752, limits assumed, looked up): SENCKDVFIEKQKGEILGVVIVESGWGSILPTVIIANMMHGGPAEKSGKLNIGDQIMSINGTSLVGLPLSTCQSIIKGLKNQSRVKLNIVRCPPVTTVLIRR

B1: XKR7, Q5GH72 (peptide)
chain: QELLEYETTV
B2: COMMD3, Q9UBI1 (peptide)
chain: SKSLERATQL

Our source for the pKd values is paper PMC9482650, “Quantitative fragmentomics allow affinity mapping of interactomes” (Nature Communications, 2022).

One may read the pKd as −log10 of the Kd, conventionally taken in molar units.

Sequence of GRIP2_7, Q9C0E4 (Q9C0E4 934-1023): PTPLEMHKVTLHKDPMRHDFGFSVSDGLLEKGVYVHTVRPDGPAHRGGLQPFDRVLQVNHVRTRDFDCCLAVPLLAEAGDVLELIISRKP
Sequence of GRIP2_6, Q9C0E4 (Q9C0E4 648-740): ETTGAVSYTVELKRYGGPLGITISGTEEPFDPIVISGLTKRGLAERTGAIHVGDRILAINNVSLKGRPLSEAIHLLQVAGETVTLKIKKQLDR
Sequence of AHNAK1, Q09666 (Q09666 4-100): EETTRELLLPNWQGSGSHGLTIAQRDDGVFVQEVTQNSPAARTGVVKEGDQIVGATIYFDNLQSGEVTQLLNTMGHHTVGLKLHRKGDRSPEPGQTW
Sequence of DLG1_3, Q12959 (Q12959 457-571): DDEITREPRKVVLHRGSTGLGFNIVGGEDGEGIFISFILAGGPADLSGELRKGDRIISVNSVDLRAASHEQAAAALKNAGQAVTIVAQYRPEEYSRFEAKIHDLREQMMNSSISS
Sequence of GRID2IP_2, A4D2P6 (A4D2P6 272-370): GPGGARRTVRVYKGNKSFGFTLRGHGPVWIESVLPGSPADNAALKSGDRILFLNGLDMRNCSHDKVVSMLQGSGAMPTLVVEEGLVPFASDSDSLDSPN
Sequence of GORASP1, Q9BQQ3 (Q9BQQ3 1-208): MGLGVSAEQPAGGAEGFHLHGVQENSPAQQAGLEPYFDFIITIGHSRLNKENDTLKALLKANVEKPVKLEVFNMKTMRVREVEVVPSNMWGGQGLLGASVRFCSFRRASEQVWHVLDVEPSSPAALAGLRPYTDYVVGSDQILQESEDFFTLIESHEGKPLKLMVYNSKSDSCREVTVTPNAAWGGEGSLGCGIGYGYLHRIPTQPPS

The first assay has as its target T1, SNTG1, Q9NSN8. Nature of the assay: holdup assay. The arrangement: key: below the threshold = too weak to quantify, mostly under pKd 3.1 to 4. Conditions: plain residues with an end cap or a label only (N-terminal biotin on a linker: ado-ado).
Take B1: the pKd came out at 5.14.
Still for that read-out and setting: under B2 stands 3.51.

The target of a further assay is DLG2_3, Q15700. Nature of the assay: holdup assay. The arrangement: key: below the threshold = too weak to quantify, mostly under pKd 3.1 to 4. Conditions: plain residues with an end cap or a label only (N-terminal biotin on a linker: ado-ado).
Molecule B1 returned a pKd of 3.55.
Same read-out and setting: for B2 the value was 3.71.

The target of a further assay is T2, NHERF3_1, Q5T2W1. Nature of the assay: holdup assay. The arrangement: key: below the threshold = too weak to quantify, mostly under pKd 3.1 to 4. The conditions noted are these: plain residues with an end cap or a label only (N-terminal biotin on a linker: ado-ado).
B1 gave a pKd of 3.93.
On the same count and under the same terms, for B2 the value was 5.82.

A further assay deals with T3, SNTB1, Q13884. As to the kind of experiment: holdup assay. The arrangement: key: below the threshold = too weak to quantify, mostly under pKd 3.1 to 4. The conditions noted are these: plain residues with an end cap or a label only (N-terminal biotin on a linker: ado-ado).
Consider B1, for which the pKd was 5.07.
On to B2, for which the pKd worked out at 4.24.

The target in the next assay is MAGI1_1, Q96QZ7. As to the kind of experiment: holdup assay. The arrangement: key: below the threshold = too weak to quantify, mostly under pKd 3.1 to 4. Conditions: plain residues with an end cap or a label only (N-terminal biotin on a linker: ado-ado).
Sequence of MAGI1_1, Q96QZ7 (Q96QZ7 1-106): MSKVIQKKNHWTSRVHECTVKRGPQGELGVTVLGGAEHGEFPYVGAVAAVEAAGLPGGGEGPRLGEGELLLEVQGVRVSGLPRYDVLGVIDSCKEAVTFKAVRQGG
With B1, the negative-log Kd (pKd) entry is given as “below the threshold”.
In the case of B2, the pKd result is reported as “below the threshold”.

Another assay concerns the target GRIP2_7, Q9C0E4. As to the kind of experiment: holdup assay. Set-up: key: below the threshold = too weak to quantify, mostly under pKd 3.1 to 4. Conditions: plain residues with an end cap or a label only (N-terminal biotin on a linker: ado-ado).
B1: the pKd result was “below the threshold”.
The same measure, in the same setting: under B2 stands 3.51.

A further assay concerns the target DLG1_3, Q12959. Nature of the assay: holdup assay. The arrangement: key: below the threshold = too weak to quantify, mostly under pKd 3.1 to 4. The conditions noted are these: plain residues with an end cap or a label only (N-terminal biotin on a linker: ado-ado).
Molecule B1 came in with a pKd of 4.09.
On the same count and under the same terms, under B2 stands 3.97.

The next assay concerns the target GRIP2_6, Q9C0E4. As to the kind of experiment: holdup assay. Set-up: key: below the threshold = too weak to quantify, mostly under pKd 3.1 to 4. Conditions: plain residues with an end cap or a label only (N-terminal biotin on a linker: ado-ado).
In turn, B1 came in with a pKd of 3.55.
Regarding B2, the pKd result is on record as “below the threshold”.

Another assay addresses T4, MPDZ_5, O75970. As to the kind of experiment: holdup assay. The arrangement: key: below the threshold = too weak to quantify, mostly under pKd 3.1 to 4. The conditions noted are these: plain residues with an end cap or a label only (N-terminal biotin on a linker: ado-ado).
As to B1, the pKd result is given as “below the threshold”.
For B2, the negative logarithm of the Kd (pKd) entry was “below the threshold”.

The next assay deals with T5, TJP3_3, O95049. As to the kind of experiment: holdup assay. The arrangement: key: below the threshold = too weak to quantify, mostly under pKd 3.1 to 4. The conditions noted are these: plain residues with an end cap or a label only (N-terminal biotin on a linker: ado-ado).
The molecule B1 had a pKd of 3.5.
The same measure, in the same setting: under B2 stands “below the threshold”.

In a further assay the target is PARD3_3, Q8TEW0. As to the kind of experiment: holdup assay. Set-up: key: below the threshold = too weak to quantify, mostly under pKd 3.1 to 4. Conditions: plain residues with an end cap or a label only (N-terminal biotin on a linker: ado-ado).
Sequence of PARD3_3, Q8TEW0 (Q8TEW0 582-685): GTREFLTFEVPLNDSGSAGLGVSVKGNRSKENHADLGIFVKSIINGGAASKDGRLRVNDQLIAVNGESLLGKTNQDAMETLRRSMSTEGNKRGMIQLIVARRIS
Regarding B1, the pKd stood at 4.19.
Consider B2, for which the pKd entry is “below the threshold”.

A further assay has as its target AHNAK1, Q09666. As to the kind of experiment: holdup assay. Set-up: key: below the threshold = too weak to quantify, mostly under pKd 3.1 to 4. Conditions: plain residues with an end cap or a label only (N-terminal biotin on a linker: ado-ado).
Take B1: the pKd result is given as “below the threshold”.
Still for that read-out and setting: under B2 stands “below the threshold”.

The target in a further assay is Inadl_8, Q8NI35. As to the kind of experiment: holdup assay. Conditions: plain residues with an end cap or a label only (N-terminal biotin on a linker: ado-ado). Set-up: key: below the threshold = too weak to quantify, mostly under pKd 3.1 to 4.
Sequence of Inadl_8, Q8NI35 (Q8NI35 1425-1530): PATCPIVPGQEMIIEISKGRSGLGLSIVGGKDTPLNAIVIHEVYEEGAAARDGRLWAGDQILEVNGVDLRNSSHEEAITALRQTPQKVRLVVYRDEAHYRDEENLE
The molecule B1 had a negative-log Kd (pKd) of 3.59.
Same read-out and setting: under B2 stands 3.52.

A further assay has as its target T6, SNTG2, Q9NY99. Nature of the assay: holdup assay. Set-up: key: below the threshold = too weak to quantify, mostly under pKd 3.1 to 4. The conditions noted are these: plain residues with an end cap or a label only (N-terminal biotin on a linker: ado-ado).
B1: the pKd is 4.69.
In the case of B2, the pKd entry is reported as “below the threshold”.

For another assay, the target named is T7, APBA2_1, Q99767. Nature of the assay: holdup assay. Conditions: plain residues with an end cap or a label only (N-terminal biotin on a linker: ado-ado). The arrangement: key: below the threshold = too weak to quantify, mostly under pKd 3.1 to 4.
On to B1, for which the negative-log Kd (pKd) entry is recorded as “below the threshold”.
The same measure, in the same setting: for B2 the value was “below the threshold”.

A further assay concerns the target T8, APBA3_1, O96018. Nature of the assay: holdup assay. Conditions: plain residues with an end cap or a label only (N-terminal biotin on a linker: ado-ado). The arrangement: key: below the threshold = too weak to quantify, mostly under pKd 3.1 to 4.
For the molecule B1, the pKd result was “below the threshold”.
B2: the pKd entry is recorded as “below the threshold”.

A further assay deals with GOPC, Q9HD26. Nature of the assay: holdup assay. The arrangement: key: below the threshold = too weak to quantify, mostly under pKd 3.1 to 4. Conditions: plain residues with an end cap or a label only (N-terminal biotin on a linker: ado-ado).
With B1, the negative-log Kd (pKd) was determined as 3.96.
Still for that read-out and setting: under B2 stands 3.81.

A further assay deals with T9, GRIP1_5, Q9Y3R0. Nature of the assay: holdup assay. The arrangement: key: below the threshold = too weak to quantify, mostly under pKd 3.1 to 4. Conditions: plain residues with an end cap or a label only (N-terminal biotin on a linker: ado-ado).
For the molecule B1, the pKd result is “below the threshold”.
Turning to B2, the pKd entry is listed as “below the threshold”.

A further assay addresses T10, GRIP1_2, Q9Y3R0. As to the kind of experiment: holdup assay. The arrangement: key: below the threshold = too weak to quantify, mostly under pKd 3.1 to 4. Conditions: plain residues with an end cap or a label only (N-terminal biotin on a linker: ado-ado).
Regarding B1, the pKd result is “below the threshold”.
On the same count and under the same terms, for B2 the value was 3.5.

The target in another assay is T11, SHANK1, Q9Y566. As to the kind of experiment: holdup assay. Conditions: plain residues with an end cap or a label only (N-terminal biotin on a linker: ado-ado). The arrangement: key: below the threshold = too weak to quantify, mostly under pKd 3.1 to 4.
The molecule B1 showed a pKd of 4.44.
The same measure, in the same setting: for B2 the value was 4.81.

The next assay has as its target GRID2IP_2, A4D2P6. Nature of the assay: holdup assay. Conditions: plain residues with an end cap or a label only (N-terminal biotin on a linker: ado-ado). Set-up: key: below the threshold = too weak to quantify, mostly under pKd 3.1 to 4.
B1 displayed a pKd of 3.81.
Still for that read-out and setting: for B2 the value was 4.69.

For another assay, the target named is Inadl_9, Q8NI35. Nature of the assay: holdup assay. The conditions noted are these: plain residues with an end cap or a label only (N-terminal biotin on a linker: ado-ado). The arrangement: key: below the threshold = too weak to quantify, mostly under pKd 3.1 to 4.
Sequence of Inadl_9, Q8NI35 (Q8NI35 1530-1615): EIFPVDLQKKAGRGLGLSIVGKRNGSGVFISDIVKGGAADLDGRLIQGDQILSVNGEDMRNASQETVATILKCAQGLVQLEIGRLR
The molecule B1 came in with a pKd of 3.89.
Take B2: the pKd entry is on record as “below the threshold”.

In another assay the target is T12, APBA1_1, Q02410. Nature of the assay: holdup assay. Set-up: key: below the threshold = too weak to quantify, mostly under pKd 3.1 to 4. Conditions: plain residues with an end cap or a label only (N-terminal biotin on a linker: ado-ado).
Consider B1, for which the pKd result is recorded as “below the threshold”.
On to B2, for which the pKd entry is on record as “below the threshold”.

Another assay concerns the target GORASP1, Q9BQQ3. Nature of the assay: holdup assay. Set-up: key: below the threshold = too weak to quantify, mostly under pKd 3.1 to 4. The conditions noted are these: plain residues with an end cap or a label only (N-terminal biotin on a linker: ado-ado).
In turn, B1 returned a negative-log Kd (pKd) of 4.23.
B2 showed a pKd of 3.78.
